Measurements as given in article PMC10997623, “Cryo-EM structures of prokaryotic ligand-gated ion channel GLIC provide insights into gating in a lipid environment” (Nature Communications, 2024).

Target: the molecule itself
Assay: cryo-EM structure; GLIC in MSP1E3D1 lipid nanodiscs (asolectin at pH 7.5; DOPE:POPS:POPC 2:1:1 at pH 7.5, 5.5, 4.0 and 2.5), 150 mM NaCl, 1 mM EDTA; seven maps at 2.6-3.4 Å; homopentamer

B1: GLIC, proton-activated prokaryotic ligand-gated ion channel from Gloeobacter violaceus (natural protein)
chain: QDMVSPPPPIADEPLTVNTGIYLIECYSLDDKAETFKVNAFLSLSWKDRRLAFDPVRSGVRVKTYEPEAIWIPEIRFVNVENARDADVVDISVSPDGTVQYLERFSARVLSPLDFRRYPFDSQTLHIYLIVRSVDTRNIVLAVDLEKVGKNDDVFLTGWDIESFTAVVKPANFALEDRLESKLDYQLRISRQYFSYIPNIILPMLFILFISWTAFWSTSYEANVTLVVSTLIAHIAFNILVETNLPKTPYMTYTGAIIFMIYLFYFVAVIEVTVQHYLKVESQPARAASITRASRIAFPVVFLLANIILAFLFFGF
notes: GLIC, Gloeobacter violaceus ligand-gated ion channel; expressed as a GLIC-MBP fusion from pET26, MBP removed with HRV-3C protease; Homopentamer; also called GLIC_(aso-pH7.5); GLIC_(pH7.5); source: E. coli C41, purified (DDM, amylose resin, SEC), reconstituted in lipid nanodiscs with MSP1E3D1
For B1, the “stoichiometry N” value was 5.
